Reference: patent US20160116469A1 (INSTITUTE OF ARTHRITIS RESEARCH, published 2016)

Target: human TLR4 (human, UniProt O00206 24-839)
Assay: cell-based or functional assay

Chain of human TLR4 (O00206 24-839): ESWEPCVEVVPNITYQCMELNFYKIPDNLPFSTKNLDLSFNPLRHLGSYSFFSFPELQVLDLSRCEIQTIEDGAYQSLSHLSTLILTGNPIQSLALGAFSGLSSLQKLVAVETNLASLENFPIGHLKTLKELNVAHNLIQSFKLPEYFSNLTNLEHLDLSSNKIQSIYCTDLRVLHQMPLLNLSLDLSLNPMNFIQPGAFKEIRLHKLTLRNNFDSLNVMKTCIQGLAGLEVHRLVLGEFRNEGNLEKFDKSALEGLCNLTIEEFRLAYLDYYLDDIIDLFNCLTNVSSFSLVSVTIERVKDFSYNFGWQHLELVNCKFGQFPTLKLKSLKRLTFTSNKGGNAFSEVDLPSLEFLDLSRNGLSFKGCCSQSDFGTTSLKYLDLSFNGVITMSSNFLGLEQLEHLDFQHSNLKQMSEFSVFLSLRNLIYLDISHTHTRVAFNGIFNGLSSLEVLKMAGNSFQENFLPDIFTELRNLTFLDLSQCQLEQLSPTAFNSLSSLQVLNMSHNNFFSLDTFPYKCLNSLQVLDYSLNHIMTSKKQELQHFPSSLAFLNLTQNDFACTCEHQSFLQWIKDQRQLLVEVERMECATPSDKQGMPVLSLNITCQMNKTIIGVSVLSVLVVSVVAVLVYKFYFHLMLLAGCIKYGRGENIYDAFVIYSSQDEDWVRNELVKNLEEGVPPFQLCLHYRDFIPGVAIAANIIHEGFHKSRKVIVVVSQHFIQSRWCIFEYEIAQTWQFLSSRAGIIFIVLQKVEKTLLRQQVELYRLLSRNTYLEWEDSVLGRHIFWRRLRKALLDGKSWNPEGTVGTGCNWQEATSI

- NF-κB-driven SEAP reporter, human TLR4-transfected HEK293 cells, response relative to E. coli K12 LPS at 100 ng/ml: 10 % of the response to E. coli K12 LPS
B1: PeptideX2 (peptide)
peptide: KSIAYLQMNSLK
